Assay results as given in US20220402979A1 (AXON NEUROSCIENCE, published 2022).

Tests used:
Human Tau2N4R = target: T1, Human Tau2N4R; assay: SPR; literature table, Jadhav et al. 2019; AVIDITY 'nd.'
T1 construct: target in SPR of the literature rows

[1] = target: T2, recombinant human mis-disordered tau protein (tau151-391/4R) (human, UniProt P10636 468-708); assay: SPR, target 'Pathological Tau151-391_4R'; literature table, Jadhav et al. 2019; AVIDITY 'nd.'
T2 construct: No tags are stated; also called pathological tau
T2 sequence (P10636 468-708): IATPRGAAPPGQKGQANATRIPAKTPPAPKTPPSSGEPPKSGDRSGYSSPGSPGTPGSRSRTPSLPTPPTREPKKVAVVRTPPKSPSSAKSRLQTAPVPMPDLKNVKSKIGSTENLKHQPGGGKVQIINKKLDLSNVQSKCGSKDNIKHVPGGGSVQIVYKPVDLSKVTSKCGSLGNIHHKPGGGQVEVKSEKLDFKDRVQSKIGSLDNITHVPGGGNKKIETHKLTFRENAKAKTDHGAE

T1 sequence (single chain, as listed by the source limits assumed): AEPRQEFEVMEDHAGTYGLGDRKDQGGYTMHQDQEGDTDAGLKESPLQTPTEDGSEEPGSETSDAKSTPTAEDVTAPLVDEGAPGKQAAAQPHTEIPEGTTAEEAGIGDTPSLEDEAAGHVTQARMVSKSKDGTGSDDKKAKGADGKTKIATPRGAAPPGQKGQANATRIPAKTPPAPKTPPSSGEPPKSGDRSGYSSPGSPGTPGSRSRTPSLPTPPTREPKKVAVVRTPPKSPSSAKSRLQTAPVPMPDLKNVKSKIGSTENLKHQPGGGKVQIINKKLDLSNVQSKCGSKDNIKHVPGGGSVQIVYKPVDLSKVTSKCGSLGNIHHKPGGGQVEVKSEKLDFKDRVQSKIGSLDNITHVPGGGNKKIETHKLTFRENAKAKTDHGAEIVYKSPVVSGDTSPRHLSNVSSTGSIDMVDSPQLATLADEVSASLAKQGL

Kd (Human Tau2N4R): 91 nM
Kd [1]: 14 nM
B1: DC8E8 (antibody, V domains shown)
VH: QVQLQQSGPELVKPGTSVKMPCKASGYIFTDYVISWVKQRTGQGLEWIGEIFPRSGSTYYNEKFKGKATLTADKSSNTAYMQLSSVTSEDSAVYFCARDYYGTSFAMDYWGQGTSVTVSS
VL: DIVMSQSPSSLAVSAGEKVTMSCKSSQSLLNSRTRKNYLAWYQQKPGQSPKLLIYWASTRESGVPDRFTGSGSGTDFTLTISSVQAEDLAVYYCKQSFYLRTFGGGTKLDIK
